What all share (assay): ELISA
Experiment [1] deals with His-tagged ASH/RhoGAP domain of OCRL (536aa-901aa) (human) (UniProt Q01968).
The target is the same in experiment [2]. The source holds these as a separate data set.
Experiment [3] has the same target. This is another data set of the same source.

Read-outs that look alike come from different tables or passages of the source.

Chain of His-tagged ASH/RhoGAP domain of OCRL (536aa-901aa) (human) (Q01968 536-901): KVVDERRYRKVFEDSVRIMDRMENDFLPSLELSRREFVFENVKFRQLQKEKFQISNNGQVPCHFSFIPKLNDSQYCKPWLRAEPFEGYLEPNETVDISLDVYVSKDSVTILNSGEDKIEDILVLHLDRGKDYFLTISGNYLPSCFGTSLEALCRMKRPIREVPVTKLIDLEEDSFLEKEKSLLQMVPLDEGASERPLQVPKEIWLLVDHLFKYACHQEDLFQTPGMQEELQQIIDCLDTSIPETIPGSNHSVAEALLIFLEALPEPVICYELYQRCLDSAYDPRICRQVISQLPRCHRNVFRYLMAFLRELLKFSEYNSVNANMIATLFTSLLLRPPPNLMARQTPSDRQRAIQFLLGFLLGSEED

For the substance “GST-SdhA-CBM2 (from UniProt Q6RCQ3 1029-1260) (domain or fragment)”, the EC50 was found to be 80.7 nM in experiment [1] and 87.4 nM in experiment [2].
Turning to “GST-SdhA-CBM2A (from UniProt Q6RCQ3 1029-1080) (domain or fragment)”, the results for the concentration for a half-maximal effect (EC50) in experiment [3] and in experiment [1] were 8.1 nM and 27.2 nM, respectively.

The values are drawn from publication doi:10.1101/2020.10.04.325654.
